From US20130266579A1

What was measured:
[1] = target: human epidermal growth factor receptor (EGFR) (human) (UniProt P00533); test: cell-based or functional assay
[2] = target: human epidermal growth factor receptor (EGFR) on cells and tissues (human) (UniProt P00533); test: in vivo fluorescence imaging

| Substance | EC50 for Cell Growth Inhibition (CGI), Keratinocyte (HEK-N) cells [1] | EC50 for Cell Growth Inhibition (CGI), A431 cells [1] | fold increase of tumor DL755 signal over 7 days [2] |
| --- | --- | --- | --- |
| Saporin conjugated Y104D | 0.0158 mg/L |  |  |
| Saporin conjugated Y104D/Q111P | 0.0225 mg/L | 0.0024 mg/L |  |
| control Human IgG (antibody) |  |  | 3 fold |
